According to publication PMC10943247 (2024):

Key:
[1] = molecular target: CRL2^FEM1B complex with FEM1B^F549S, unneddylated (human, UniProt Q13617 1-745; P62877 1-108; Q15370 1-104; Q15369 17-112; Q9UK73 1-627, F549S)
[2] = molecular target: CRL2^FEM1B complex with FEM1B^F549R, unneddylated (human, UniProt Q13617 1-745; P62877 1-108; Q15370 1-104; Q15369 17-112; Q9UK73 1-627, F549R)
[3] = molecular target: CRL2^FEM1B complex with FEM1B^Y275R/L278R, unneddylated (human, UniProt Q13617 1-745; P62877 1-108; Q15370 1-104; Q15369 17-112; Q9UK73 1-627, Y275R | L278R)
[4] = molecular target: CRL2^FEM1B complex with FEM1B^F549T, unneddylated (human, UniProt Q13617 1-745; P62877 1-108; Q15370 1-104; Q15369 17-112; Q9UK73 1-627, F549T)
[5] = molecular target: CRL2^FEM1B complex with FEM1B^Δ546-553 (FEM1B^DEL), unneddylated (human, UniProt Q13617 1-745; P62877 1-108; Q15370 1-104; Q15369 17-112; Q9UK73 1-627, Δ546-553)

B1: FNIP1/FLCN complex (complex)
chain 1: MAPTLFQKLFSKRTGLGAPGRDARDPDCGFSWPLPEFDPSQIRLIVYQDCERRGRNVLFDSSVKRRNEDISVSKLGSDAQVKVFGKCCQLKPGGDSSSSLDSSVTSSSDIKDQCLKYQGSRCSSDANMLGEMMFGSVAMSYKGSTLKIHQIRSPPQLMLSKVFTARTGSSICGSLNTLQDSLEFINQDNNTLKADNNTVINGLLGNIGLSQFCSPRRAFSEQGPLRLIRSASFFAVHSNPMDMPGRELNEDRDSGIARSASLSSLLITPFPSPNSSLTRSCASSYQRRWRRSQTTSLENGVFPRWSIEESFNLSDESCGPNPGIVRKKKIAIGVIFSLSKDEDENNKFNEFFFSHFPLFESHMNKLKSAIEQAMKMSRRSADASQRSLAYNRIVDALNEFRTTICNLYTMPRIGEPVWLTMMSGTPEKNHLCYRFMKEFTFLMENASKNQFLPALITAVLTNHLAWVPTVMPNGQPPIKIFLEKHSSQSVDMLAKTHPYNPLWAQLGDLYGAIGSPVRLARTVVVGKRQDMVQRLLYFLTYFIRCSELQETHLLENGEDEAIVMPGTVITTTLEKGEIEESEYVLVTMHRNKSSLLFKESEEIRTPNCNCKYCSHPLLGQNVENISQQEREDIQNSSKELLGISDECQMISPSDCQEENAVDVKQYRDKLRTCFDAKLETVVCTGSVPVDKCALSESGLESTEETWQSEKLLDSDSHTGKAMRSTGMVVEKKPPDKIVPASFSCEAAQTKVTFLIGDSMSPDSDTELRSQAVVDQITRHHTKPLKEERGAIDQHQETKQTTKDQSGESDTQNMVSEEPCELPCWNHSDPESMSLFDEYFNDDSIETRTIDDVPFKTSTDSKDHCCMLEFSKILCTKNNKQNNEFCKCIETVPQDSCKTCFPQQDQRDTLSILVPHGDKESSDKKIAVGTEWDIPRNESSDSALGDSESEDTGHDMTRQVSSYYGGEQEDWAEEDEIPFPGSKLIEVSAVQPNIANFGRSLLGGYCSSYVPDFVLQGIGSDERFRQCLMSDLSHAVQHPVLDEPIAEAVCIIADMDKWTVQVASSQRRVTDNKLGKEVLVSSLVSNLLHSTLQLYKHNLSPNFCVMHLEDRLQELYFKSKMLSEYLRGQMRVHVKELGVVLGIESSDLPLLAAVASTHSPYVAQILL
chain 2: MNAIVALCHFCELHGPRTLFCTEVLHAPLPQGDGNEDSPGQGEQAEEEEGGIQMNSRMRAHSPAEGASVESSSPGPKKSDMCEGCRSLAAGHPGYISHDKETSIKYVSHQHPSHPQLFSIVRQACVRSLSCEVCPGREGPIFFGDEQHGFVFSHTFFIKDSLARGFQRWYSIITIMMDRIYLINSWPFLLGKVRGIIDELQGKALKVFEAEQFGCPQRAQRMNTAFTPFLHQRNGNAARSLTSLTSDDNLWACLHTSFAWLLKACGSRLTEKLLEGAPTEDTLVQMEKLADLEEESESWDNSEAEEEEKAPVLPESTEGRELTQGPAESSSLSGCGSWQPRKLPVFKSLRHMRQVLGAPSFRMLAWHVLMGNQVIWKSRDVDLVQSAFEVLRTMLPVGCVRIIPYSSQYEEAYRCNFLGLSPHVQIPPHVLSSEFAVIVEVHAAARSTLHPVGCEDDQSLSKYEFVVTSGSPVAADRVGPTILNKIEAALTNQNLSVDVVDQCLVCLKEEWMNKVKVLFKFTKVDSRPKEDTQKLLSILGASEEDNVKLLKFWMTGLSKTYKSHLMSTVRSPTASESRN
Question: With B1 as the binder, how does the koff [1] read?
Answer: 0.00178 s⁻¹

Question: And the koff [2]?
Answer: 0.00141 s⁻¹

Question: What about the koff [3] of the same binder?
Answer: 0.000653 s⁻¹

Question: What about the koff [4] of the same binder?
Answer: 0.00184 s⁻¹

Question: And the koff [5]?
Answer: 0.000955 s⁻¹
